Experimental data reported in the supplement of paper PMC10201428.
± gives the standard deviation of the averaged measurements.

How the values were obtained:
[1] = test system: VchCAST RNA-guided transposition machinery (E. coli BL21(DE3) host, lacZ target); experiment: relative integration efficiency (T-RL orientation) vs wild-type transposon end (log2 (normalized fold change)); transposon end mutated: left end; higher = more efficient transposition
Summary of the method: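 In E. coli BL21(DE3), a T7-driven effector plasmid was paired with a pUC57 mini-transposon donor containing 1549 left-end or 1849 right-end barcoded transposon variants. Cells grew on plates with 0.1 mM IPTG at 37°C for 18 h. Relative integration efficiency was derived from Illumina reads of genomic integration junctions against input plasmids, as a log-transformed output/input barcode fold change normalised to reference barcodes.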

[2] = test system: VchCAST RNA-guided transposition machinery (E. coli BL21(DE3) host, lacZ target); experiment: relative integration efficiency (T-LR orientation) vs wild-type transposon end (log2 (normalized fold change)); transposon end mutated: left end; higher = more efficient transposition
Protocol: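 Pooled, barcoded VchCAST (Tn6677) mini-transposon donor libraries; each variable transposon-end sequence sits in a fixed pDonor mini-transposon context (10-bp barcode and cargo not included). Left- or right-end libraries were co-transformed with pEffector (TniQ-Cascade, TnsABC, lacZ crRNA, T7, 0.1 mM IPTG) into E. coli BL21(DE3) and grown 18 h at 37 C. T-LR and T-RL junction amplicons were sequenced; output/input barcode fold change was normalised to the mean of four wild-type barcodes and log2-transformed. Two biological replicates; zero-count/undetected variants carry floor values (-10 / -15), censored here. Barcode uncoupling by PCR recombination adds noise.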

Sequence | relative integration efficiency (log2) [1] | relative integration efficiency (log2) [2]
AATGTTGTTGATGCAACCATAAAATGATAATTAATAATTATTTATAATCAGCAACTTAACCACAAAACAACCATAAAATGATAATTATTTTGTCAACCATAAAATGATAATTATGTGAATCGAGTATTTCAGCAAAACTACTGCAGTAAGAA | -1.39 ± 0.9 | -1.36 ± 1.1
AATGTTGTTGATGCAACCATAAAATGATAATTAATAATTATTTATAATCAGCAACTTAACCACAAAACAACCATAAAGTGATATTTAACAAAAGTTGGTATTCAACTATAAAATGTGAATCGAGTATTTCAGCAAAACTACTGCAGTAAGAA | -2.33 ± 0.95 | -0.635 ± 1
AATGTTGTTGATGCAACCATAAAATGATAATTAATAATTATTTATAATCAGCAACTTAACCACAAAACAACCATAAGTTGATATTTTACAAAAGTTGGTATTCAACTATAAAATGTGAATCGAGTATTTCAGCAAAACTACTGCAGTAAGAA | -2.24 ± 0.86 | -1.49 ± 1.9
AATGTTGTTGATGCAACCATAAAATGATAATTAATAATTATTTATAATCAGCAACTTAACCACAAAACAACCATATATTGATATCTCACAAAAGTTGGTATTCAACTATAAAATGTGAATCGAGTATTTCAGCAAAACTACTGCAGTAAGAA | -2.59 ± 1.1 | -0.862 ± 0.91
AATGTTGTTGATGCAACCATAAAATGATAATTAATAATTATTTATAATCAGCAACTTAACCACAAAACACCCATAAATTGATAATTAACAAAAGTTGGTATTCAACTATAAAATGTGAATCGAGTATTTCAGCAAAACTACTGCAGTAAGAA | -2.02 ± 1.1 | -0.121 ± 0.44
AATGTTGTTGATGCAACCATAAAATGATAATTAATAATTATTTATAATCAGCAACTTAACCACAAAACACCCATAAATTGATATTGCACAAAAGTTGGTATTCAACTATAAAATGTGAATCGAGTATTTCAGCAAAACTACTGCAGTAAGAA | -3.1 ± 1.4 | -1.48 ± 0.57
AATGTTGTTGATGCAACCATAAAATGATAATTAATAATTATTTATAATCAGCAACTTAACCACAAAATAATTATCATTTTATGGTTGACAAAATAATTATCATTTTATGGTTGTGTGAATCGAGTATTTCAGCAAAACTACTGCAGTAAGAA | -6.03 ± 2.2 | -0.969 ± 0.98
AATGTTGTTGATGCAACCATAAAGTGAGCGGGCATAATTATTTATAATCAGCAACTTAACCACAAAACAACCATATATTGAGCGAGAACAAAACAACCATAAGTTGAGCGGGGTGTGAATCGAGTATTTCAGCAAAACTACTGCAGTAAGAA | -6.46 ± 1.3 | -4.11 ± 0.54
AATGTTGTTGATGCAACCATAAAGTGATAATAATTATTTATAATCAGCAACTTAACCACAAAACAACCATATATTGATATCTCACAAAACAACCATAAGTTGATATTTTTGTGAATCGAGTATTTCAGCAAAACTACTGCAGTAAGAAAGTT | -7.71 ± 1.4 | -6.51 ± 1.4
AATGTTGTTGATGCAACCATAAAGTGATAGGGCCGCCGGCGGGCGCCGACTACCAGGCCAACACCCCACCAACGCGCGGTCGCGAGACACCCCACCAACGCCTGGTCGCGGGGGTGTCCGATCTGATTTCAGCAAAACTACTGCAGTAAGAA | -7.44 ± 1.6 | -5.19 ± 2.5
AATGTTGTTGATGCAACCATAAAGTGATATATAATTATTTATAATCAGCAACTTAACCACAAAACAACCATATATTGATATCTCACAAAACAACCATAAGTTGATATTTTTGTGAATCGAGTATTTCAGCAAAACTACTGCAGTAAGAAAGT | -7.3 ± 1.5 | -4.68 ± 0.68
AATGTTGTTGATGCAACCATAAAGTGATATGGCCGCCGGCGGGCGCCGACTACCAGGCCAACACCCCACCAACGCGCGGTCGCGAGACACCCCACCAACGCCTGGTCGCGGGGGTGTCCGATCTGATTTCAGCAAAACTACTGCAGTAAGAA | -7.18 ± 0.63 | -6.67 ± 3.5
AATGTTGTTGATGCAACCATAAAGTGATATTGCCGCCGGCGGGCGCCGACTACCAGGCCAACACCCCACCAACGCGCGGTCGCGAGACACCCCACCAACGCCTGGTCGCGGGGGTGTCCGATCTGATTTCAGCAAAACTACTGCAGTAAGAA | -7.14 ± 1.3 | -5.87 ± 0.86
AATGTTGTTGATGCAACCATAAAGTGATATTTAAAATGTGAGCGAGTAACAACCCTTAACCACAAAACAACCATATATTGATATCTCACAAAACAACCATAAGTTGATATTTTTGTGAATCGAGTATTTCAGCAAAACTACTGCAGTAAGAA | -2.19 ± 0.48 | -0.988 ± 0.33
AATGTTGTTGATGCAACCATAAAGTGATATTTAAAGTACAGCGCGACTGAACTCATCATTAAAACGACAACCATATATTGATATCTCACAAAACAACCATAAGTTGATATTTTTGTGAATCGAGTATTTCAGCAAAACTACTGCAGTAAGAA | -2.4 ± 1.2 | -0.487 ± 1.5
AATGTTGTTGATGCAACCATAAAGTGATATTTAAATTGTGAGCGGATAACAATTCTTAACCACAAAACAACCATATATTGATATCTCACAAAACAACCATAAGTTGATATTTTTGTGAATCGAGTATTTCAGCAAAACTACTGCAGTAAGAA | -3.08 ± 0.73 | -3.23 ± 0.83
AATGTTGTTGATGCAACCATAAAGTGATATTTAACAACCATAAAGTGATATTTAACTTAACCACAAACAACCATATATTGATATCTCACAAAACAACCATAAGTTGATATTTTTGTGAATCGAGTATTTCAGCAAAACTACTGCAGTAAGAA | -2.56 ± 0.5 | 1.37 ± 1.1
AATGTTGTTGATGCAACCATAAAGTGATATTTAACAACCATATATTGATATCTCACAAAACAACCATAAGTTGATATTTTTAATTATTTATAATCAGCAACTTAACCACAAAATGTGAATCGAGTATTTCAGCAAAACTACTGCAGTAAGAA | -1.58 ± 0.69 | -0.212 ± 1.1
AATGTTGTTGATGCAACCATAAAGTGATATTTAACAACCATATATTGATATCTCACAAAACAACCATAAGTTGATATTTTTGTGAATCGAGTATTTCAGCAAAACTACTGCAGTAAGAAAGTTACTTCGTGGTATGGGAGGATCAAGGAGCC | -2.74 ± 1 | -0.0605 ± 1
AATGTTGTTGATGCAACCATAAAGTGATATTTAACAACCATATATTGATATCTCTAATTATTTATAATCAGCAACTTAACCACAAAAACAAAACAACCATAAGTTGATATTTTTGTGAATCGAGTATTTCAGCAAAACTACTGCAGTAAGAA | -2.13 ± 0.82 | -0.167 ± 0.77
AATGTTGTTGATGCAACCATAAAGTGATATTTAACAAGACTAACATTATTAGTAACTGAGAACTATGCAACCATATATTGATATCTCACAAAACAACCATAAGTTGATATTTTTGTGAATCGAGTATTTCAGCAAAACTACTGCAGTAAGAA | -2.4 ± 0.87 | -2.85 ± 0.45
AATGTTGTTGATGCAACCATAAAGTGATATTTAACTCTCTTCTTTAGCAGTCTAGTCTATTGAAACTCAACCATATATTGATATCTCACAAAACAACCATAAGTTGATATTTTTGTGAATCGAGTATTTCAGCAAAACTACTGCAGTAAGAA | -3.73 ± 1.2 | -5.31 ± 0.24
AATGTTGTTGATGCAACCATAAAGTGATATTTAAGCCGGCGGGCGCCGACTACCAGGCCAACACCCCACCAACGCGCGGTCGCGAGACACCCCACCAACGCCTGGTCGCGGGGGTGTCCGATCTGATTTCAGCAAAACTACTGCAGTAAGAA | -6.95 ± 1.1 | -5.38 ± 1
AATGTTGTTGATGCAACCATAAAGTGATATTTAAGCTATACTCTAGGTATCTAACTTGTCCCATTGCCAACCATATATTGATATCTCACAAAACAACCATAAGTTGATATTTTTGTGAATCGAGTATTTCAGCAAAACTACTGCAGTAAGAA | -4.82 ± 1.4 | -3.91 ± 1.4
AATGTTGTTGATGCAACCATAAAGTGATATTTAAGTACTGCGCGTCTGAAGTCATCTTTAAACCGAACAACCATATATTGATATCTCACAAAACAACCATAAGTTGATATTTTTGTGAATCGAGTATTTCAGCAAAACTACTGCAGTAAGAA | -3.55 ± 0.95 | -3.06 ± 1.1
AATGTTGTTGATGCAACCATAAAGTGATATTTAATAACAACCATAAAGTGATATTTAACTTAACCACCAACCATATATTGATATCTCACAAAACAACCATAAGTTGATATTTTTGTGAATCGAGTATTTCAGCAAAACTACTGCAGTAAGAA | -4.66 ± 1.1 | -3.39 ± 0.26
AATGTTGTTGATGCAACCATAAAGTGATATTTAATAACAACCATATATTGATATCTCACAAAACAACCATAAGTTGATATTTTTGTGAATCGAGTATTTCAGCAAAACTACTGCAGTAAGAAAGTTACTTCGTGGTATGGGAGGATCAAGGA | -5.54 ± 1.1 | -3.02 ± 1.5
AATGTTGTTGATGCAACCATAAAGTGATATTTAATAACAACCATATATTGATATCTCACAAAACAACCATAAGTTGATATTTTTTATTTATAATCAGCAACTTAACCACAAAATGTGAATCGAGTATTTCAGCAAAACTACTGCAGTAAGAA | -3.74 ± 0.68 | -1.89 ± 1
AATGTTGTTGATGCAACCATAAAGTGATATTTAATAACAACCATATATTGATATCTCTTATTTATAATCAGCAACTTAACCACAAAAACAAAACAACCATAAGTTGATATTTTTGTGAATCGAGTATTTCAGCAAAACTACTGCAGTAAGAA | -3.58 ± 1 | -2.07 ± 1.8
AATGTTGTTGATGCAACCATAAAGTGATATTTAATAACTTCGTATAAAGTATCCTATACGAAGTTATCAACCATATATTGATATCTCACAAAACAACCATAAGTTGATATTTTTGTGAATCGAGTATTTCAGCAAAACTACTGCAGTAAGAA | -2.17 ± 0.99 | -2.99 ± 2.4
